Test results as given in paper PMC3159478 (Nucleic Acids Research, 2011).
Residue numbers refer to the chain shown, from its start. Numbers in names are those of the source. Where two headings read alike, the source gives them in different places.

Legend:
Q9UXG1 [1] = assay: FRET or BRET
Q9UXG1 [2] = assay: FRET or BRET; remark: listed apart in the source
Q9UXG1 [3] = assay: FRET or BRET; remark: listed apart in the source
Q9UXG1 [4] = assay: FRET or BRET; remark: listed apart in the source
Q9UXG1 [5] = assay: FRET or BRET; remark: listed apart in the source
SEC = biological target: the molecule itself; assay: SEC
SsoMCM WT [6] = biological target: T1, SsoMCM WT (Sulfolobus solfataricus, UniProt Q9UXG1 1-686); assay: fluorescence anisotropy
T1 sequence: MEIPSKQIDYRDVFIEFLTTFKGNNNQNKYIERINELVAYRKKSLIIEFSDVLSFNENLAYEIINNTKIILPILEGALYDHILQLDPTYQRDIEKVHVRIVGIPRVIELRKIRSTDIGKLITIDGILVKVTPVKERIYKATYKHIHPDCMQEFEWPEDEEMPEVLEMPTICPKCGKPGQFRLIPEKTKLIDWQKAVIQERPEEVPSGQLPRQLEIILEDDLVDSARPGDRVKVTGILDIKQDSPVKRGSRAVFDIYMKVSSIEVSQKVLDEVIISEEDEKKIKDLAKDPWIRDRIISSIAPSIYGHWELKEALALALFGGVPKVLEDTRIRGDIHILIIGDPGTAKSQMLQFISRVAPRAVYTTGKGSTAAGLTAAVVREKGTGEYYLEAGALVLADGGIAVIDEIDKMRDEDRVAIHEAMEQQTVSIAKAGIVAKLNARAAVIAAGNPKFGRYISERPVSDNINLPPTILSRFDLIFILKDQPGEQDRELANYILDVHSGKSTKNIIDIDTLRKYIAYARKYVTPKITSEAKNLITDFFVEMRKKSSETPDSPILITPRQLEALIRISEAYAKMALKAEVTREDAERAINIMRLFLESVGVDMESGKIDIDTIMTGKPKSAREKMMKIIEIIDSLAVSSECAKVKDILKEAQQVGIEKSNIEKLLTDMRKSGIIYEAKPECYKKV

SsoMCM K323A/R440A = biological target: T2, SsoMCM K323A/R440A (Sulfolobus solfataricus, UniProt Q9UXG1 1-686, K323A;R440A); assay: single-pair FRET
T2 sequence: T1 sequence with K323A, R440A

SsoMCM WT [7] = biological target: T1, SsoMCM WT; assay: single-pair FRET

B1: Wild-type SsoMCM fluorescently labelled at the N-terminus with Alexa 488 (donor) or Alexa 555 (acceptor) (protein)
chain: T1 sequence
For B1, the kobs1 of MCM subunit exchange (first exponential, direct exchange of subunits) (Q9UXG1 [1]) was 0.0556 s⁻¹, the kobs1 of MCM subunit exchange (first exponential, direct exchange of subunits) (Q9UXG1 [2]) was 0.0474 s⁻¹ and the “kobs1 of MCM subunit exchange (first exponential, direct exchange of subunits)” value (Q9UXG1 [3]) was 0.125 ± 0.005 min⁻¹. The kobs1 of MCM subunit exchange (first exponential, direct exchange of subunits) (Q9UXG1 [4]) was 0.196 s⁻¹ and the kobs1 of MCM subunit exchange (first exponential, direct exchange of subunits) (Q9UXG1 [5]) was 0.192 s⁻¹.

B2: SsoMCM K323A/R440A (enzyme, Sulfolobus solfataricus, UniProt Q9UXG1 1-686, looked up)
chain: T1 sequence with K323A, R440A
With B2 the “stoichiometry N” value (SEC) was 6.

B3: ssDNA (66 nt) (ssDNA)
DNA: CACCTCTCCCTACGCTTCCCACCCACCCCGACCGGCATCTGCTATGGTACGCTGAGCGAGAGTAGC
B3 gave a Kd (SsoMCM WT [6]) of 26 ± 5 nM.

B4: spFRET fork 5'-tail 50 (51 nt) (mixed)
DNA 1: TGGCGACGGCAGCGAGGCTTTTTTTTTTTTTTTTTTTTTTTTTTTTTTT
DNA 2: TTTTTTTTTTTTTTTTTTTTTTTTTTTTTTTTTTTTTTTTTTTTTTTTTTTGCCTCGCTGCCGTCGCCA
B4: binds (SsoMCM K323A/R440A); binds (SsoMCM WT [7]).

B5: spFRET fork 5'-tail 70 (71 nt) (mixed)
DNA 1: B4 DNA 1
DNA 2: TTTTTTTTTTTTTTTTTTTTTTTTTTTTTTTTTTTTTTTTTTTTTTTTTTTTTTTTTTTTTTTTTTTTTTTGCCTCGCTGCCGTCGCCA
B5: binds (SsoMCM K323A/R440A); binds (SsoMCM WT [7]).
